Experimental data from patent US20240294622A1.

Legend:
[1] = molecular target: HGREM1-His (ACRO) (human) (UniProt O60565); experiment: ELISA, binding to hGremlin-his
[2] = molecular target: HGREM1-His (ACRO) (human) (UniProt O60565); experiment: ELISA: antibody coated, Gremlin-his titrated, anti-his-HRP; the concentration is that of Gremlin-his
[3] = molecular target: HGREM1-His (ACRO) (human) (UniProt O60565); experiment: Fortebio: Gremlin-his loaded (2ug/ml), antibody at 100 nM; unit from the axis of the sensorgram
[4] = molecular target: HGREM1-His (ACRO) (human) (UniProt O60565); experiment: Fortebio: Gremlin-his loaded (2ug/ml), antibody at 50 nM; unit from the axis of the sensorgram
[5] = molecular target: HGREM1-His (ACRO) (human) (UniProt O60565); experiment: Fortebio: Gremlin-his loaded (2ug/ml) on the sensor, antibody at 100, 50 and 25 nM
[6] = molecular target: HGREM1-His (ACRO) (human) (UniProt O60565); experiment: competition ELISA, Gremlin-his binding to coated BMP7
[7] = molecular target: HGREM1-His (ACRO) (human) (UniProt O60565); experiment: blocking ELISA, Human Gremlin-1 binding to BMP4; column OD450
[8] = molecular target: HGREM1-His (ACRO) (human) (UniProt O60565); experiment: blocking ELISA, Human Gremlin-1 binding to BMP2; column Percentage
[9] = molecular target: HGREM1-His (ACRO) (human) (UniProt O60565); experiment: blocking ELISA, Human Gremlin-1 binding to BMP4; column Percentage
[10] = molecular target: hGREM1 (source and construct not stated) (human) (UniProt O60565); experiment: ELISA on hGREM1
[11] = molecular target: HGREM1-His (ACRO) (human) (UniProt O60565); experiment: Fortebio: Gremlin-his loaded (2ug/ml), antibody at 25 nM; unit from the axis of the sensorgram
[12] = molecular target: HGREM1-His (ACRO) (human) (UniProt O60565); experiment: blocking ELISA, Human Gremlin-1 binding to BMP7; column OD450
[13] = molecular target: HGREM1-His (ACRO) (human) (UniProt O60565); experiment: Fortebio: Gremlin-his loaded (2ug/ml) on the sensor, antibody at 100, 50 and 25 nM; kdis(1/s)
[14] = molecular target: HGREM1-His (ACRO) (human) (UniProt O60565); experiment: blocking ELISA, Human Gremlin-1 binding to BMP2; column OD450
[15] = molecular target: HGREM1-His (ACRO) (human) (UniProt O60565); experiment: blocking ELISA, Human Gremlin-1 binding to BMP7; column Percentage

Chain of HGREM1-His (ACRO) (human) (O60565 25-184): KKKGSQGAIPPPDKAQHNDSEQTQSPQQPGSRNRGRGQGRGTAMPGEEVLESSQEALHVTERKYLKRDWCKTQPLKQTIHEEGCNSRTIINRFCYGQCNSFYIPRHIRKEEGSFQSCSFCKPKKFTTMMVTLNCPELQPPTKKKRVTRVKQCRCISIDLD
Chain of hGREM1 (source and construct not stated) (human) (O60565 25-184 limits assumed): as the sequence (O60565 25-184) above

EC50 [1]: 0.0575 µg/mL
EC50 (read off the curve) [2]: 0.01 µg/mL
Response [3]: 0.649 nm
Response [4]: 0.513 nm
Kd [5]: 2.58 nM
kon [5]: 338000 M⁻¹ s⁻¹
maximal blocking percentage [6]: < 30%
IC50 [7]: 0.638 µg/mL
IC50 [8]: 0.797 µg/mL
IC50 [9]: 0.638 µg/mL
EC50 [10]: 0.115 µg/mL
Response [11]: 0.313 nm
IC50 [12]: 0.536 µg/mL
koff [13]: 0.00087 s⁻¹
IC50 [14]: 0.797 µg/mL
IC50 [15]: 0.536 µg/mL
B1: benchmark antibody 6245P (antibody, from another filing, V domains shown)
VH: EVQLVESGGGLVQPGGSLRLSCAASGFTFNSFWMSWVRQAPGKGLEWVANIKQDGSEKYYVDSVKGRFTISRDNAKNSVYLQMNSLRAEDTAVYYCARDLVTSFDYWGQGTLVTVSS
VL: DIQMTQSPSSLSASVGDRVTITCQASQDINNYLNWYQQKPGKAPKLLIYDASYLETGVPSGFSGSGSGTDFTFTISSLQPEDIATYYCQQYDSLPYTFGQGTKLEIK
